According to patent publication US20230094162A1 (MacroGenics, published 2023):
Like-named read-outs stand apart in the source and are kept apart here.

Assays:
[1] = molecular target: T1, PD-L1 expressed on the cell surface (CHO/PD-L1 cells) (UniProt Q9NZQ7 19-290); assay: cell-based or functional assay
[2] = molecular target: T1, PD-L1 expressed on the cell surface …; assay: flow cytometry (FACS) on JIMT-1 cells (PD-L1 positive), MFI
[3] = molecular target: T2, CD137 expressed on the cell surface (CHO/CD137 cells) (UniProt Q07011 24-255, limits assumed); assay: flow cytometry (FACS) on CHO cells expressing CD137, MFI
T2 construct: whole, on cells; also called cell surface CD137; Jurkat-NF-κB-Luc reporter cells overexpressing CD137

[4] = molecular target: T2, CD137 expressed on the cell surface …; assay: as above; remark: listed apart in the source
Procedure: FACS analysis to evaluate the test articles for binding to cell surface CD137 was performed essentially as follows: 100 μL of CHO cells expressing CD137 (CHO/CD137) (1.0×10⁵ to 1×10⁶ cells/well) and 100 μL of serially diluted test article or control was added to each well of microtiter assay plate(s), mixed and incubated at RT for about 30 min. The cells were washed with FACS Buffer and secondary antibody (goat anti-human-APC, PE, or FITC) was then added to each well (1:1000), after which, the components were mixed and the wells were incubated at RT for about 30 min. Cells were washed and resuspended in 250 μL FACS Buffer and analyzed by flow cytometry (BD LSR Fortessa or FACSCanto II) for cell events collection. Data analysis were performed via FloJo v10.

[5] = molecular target: T1, PD-L1 expressed on the cell surface …; assay: cell-based or functional assay; remark: listed apart in the source
[6] = molecular target: T1, PD-L1 expressed on the cell surface …; assay: cell-based or functional assay; remark: listed apart in the source
[7] = molecular target: T1, PD-L1 expressed on the cell surface …; assay: flow cytometry (FACS) on CHO cells expressing PD-L1, MFI
Procedure: FACS analysis to evaluate the test articles for binding to cell surface PD-L1 was performed essentially as follows: 100 μL of CHO cells expressing PD-L1 (CHO/PD-L1) (1.0×10⁵ to 1.0×10⁶ cells/well) and 100 μL of serially diluted test article was added to each well of microtiter assay plate(s), mixed and incubated at RT for about 30 min. The cells were washed with FACS Buffer and secondary antibody (goat anti-human-FITC, PE, or APC) was then added to each well, after which, the components were mixed and the wells were incubated at RT for about 30 min. Cells were washed and resuspended in 250 μL FACS Buffer and analyzed by flow cytometry (BD LSR Fortessa or FACSCanto II) for cell events collection. Data analysis were performed via FloJo v10.
Test articles were used at 10 μg/mL and five-fold serial dilutions for the FACS analysis and at 50 μg/mL and five-fold serial dilutions for the PD-L1 reporter assay.

T2 sequence (Q07011 24-255 limits assumed): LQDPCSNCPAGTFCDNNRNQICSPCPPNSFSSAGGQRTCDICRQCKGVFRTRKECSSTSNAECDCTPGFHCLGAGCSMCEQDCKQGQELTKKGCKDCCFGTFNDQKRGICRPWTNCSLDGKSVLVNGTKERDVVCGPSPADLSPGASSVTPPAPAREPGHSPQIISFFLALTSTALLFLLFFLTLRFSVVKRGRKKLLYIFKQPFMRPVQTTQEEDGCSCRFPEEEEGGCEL
T1 sequence (Q9NZQ7 19-290): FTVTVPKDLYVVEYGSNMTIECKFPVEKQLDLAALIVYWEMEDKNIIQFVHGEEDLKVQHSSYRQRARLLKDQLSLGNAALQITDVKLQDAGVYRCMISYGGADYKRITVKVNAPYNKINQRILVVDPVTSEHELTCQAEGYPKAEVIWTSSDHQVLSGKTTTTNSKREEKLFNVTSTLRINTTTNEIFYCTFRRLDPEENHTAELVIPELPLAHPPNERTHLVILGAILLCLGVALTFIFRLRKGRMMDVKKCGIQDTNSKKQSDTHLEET

| Binder | EC50 (read off the curve) [1] [µg/mL] | EC50 (read off the curve) [2] [µg/mL] | EC50 (read off the curve) [3] [µg/mL] | EC50 (read off the curve) [4] [µg/mL] | EC50 (read off the curve) [5] [µg/mL] | EC50 (read off the curve) [6] [µg/mL] | EC50 (read off the curve) [7] [µg/mL] |
| --- | --- | --- | --- | --- | --- | --- | --- |
| DART-A1 (bispecific antibody) first and third polypeptide chains: DIQMTQSPSSLSASVGDRVTITCKASQDVNTAVAWYQQKPGKAPKLLIYWASTRHTGVPSRFSGSGSGTDFTLTISSLQPEDFATYYCQQHYNTPLTFGQGTKVEIKGGGSGGGGQVQLQESGPGLVKPSETLSLTCTVSGGSISSYYWSWIRQPPGKGLEWIGRIYTSGSTNYNPSLKSRVTMSVDTSKNQFSLKLSSVTAADTAVYYCARDGWYDEDYNYYGMDVWGQGTTVTVSSGGCGGGEVAACEKEVAALEKEVAALEKEVAALEKLEPKSADKTHTCPPCPAPEAAGGPSVFLFPPKPKDTLYITREPEVTCVVVDVSHEDPEVKFNWYVDGVEVHNAKTKPREEQYNSTYRVVSVLTVLHQDWLNGKEYKCKVSNKALPAPIEKTISKAKGQPREPQVYTLPPSREEMTKNQVSLTCLVKGFYPSDIAVEWESNGQPENNYKTTPPVLDSDGSFFLYSKLTVDKSRWQQGNVFSCSVMHEALHNHYTQKSLSLSPGK second and fourth polypeptide chains: EIVMTQSPATLSLTPGERATLSCRASQSVSSNYLSWFQQIPGQAPRLLIYGASTRATGIPARFSGSGSGTDFTLTISSLQPEDFAVYYCQQDYDLPWTFGQGTKVEIKGGGSGGGGEVQLVESGGGLVQPGGSLRLSCAASGFTFSSYTMSWVRQAPGKGLEWVAYISIGGGTTYYPDTVKGRFTISRDNAKNSLYLQMNSLRAEDTAVYYCARQGLPYYFDYWGQGTLVTVSSGGCGGGKVAACKEKVAALKEKVAALKEKVAALKE | ~0.1 | ~0.007 |  |  |  |  |  |
| DART-A6 (bispecific antibody, Tetravalent; CD137 MAB-6(1.3) and hPD-L1 MAB-2(3.2)) chain 1: DIQMTQSPSSLSASVGDRVTITCKASQDVNEAVAWYQQKPGKAPKLLIYWASTRHTGVPSRFSGSGSGTDFTLTISSLQPEDFATYYCQQHYNTPLTFGQGTKVEIKGGGSGGGGQVQLQESGPGLVKPSETLSLTCTVSGGSISSYYWSWIRQPPGKGLEWIGRIYTSGSTNYNPSLKSRVTMSVDTSKNQFSLKLSSVTAADTAVYYCARDGWYDEDYNYYGMDVWGQGTTVTVSSGGCGGGEVAACEKEVAALEKEVAALEKEVAALEKLEPKSADKTHTCPPCPAPEAAGGPSVFLFPPKPKDTLYITREPEVTCVVVDVSHEDPEVKFNWYVDGVEVHNAKTKPREEQYNSTYRVVSVLTVLHQDWLNGKEYKCKVSNKALPAPIEKTISKAKGQPREPQVYTLPPSREEMTKNQVSLTCLVKGFYPSDIAVEWESNGQPENNYKTTPPVLDSDGSFFLYSKLTVDKSRWQQGNVFSCSVMHEALHNHYTQKSLSLSPGK chain 2: EIVMTQSPATLSLSPGERATLSCRASQSVSSNYLSWFQQKPGQAPRLLIYGASTRATGIPARFSGSGSGTDFTLTISSLQPEDFAVYYCQQDYDLPWTFGQGTKVEIKGGGSGGGGEVQLVESGGGLVQPGGSLRLSCAASGFTFSSYTMSWVRQAPGKGLEWVAYISIKGGTTYYPDTVKGRFTISRDNAKNSLYLQMNSLRAEDTAVYYCARQGLPYYGDYWGQGTLVTVSSGGCGGGKVAACKEKVAALKEKVAALKEKVAALKE |  |  | ~0.02 | ~0.05 | ~0.2 |  |  |
| DART-A4 (bispecific antibody, Tetravalent; CD137 MAB-6(1.1) and hPD-L1 MAB-2(3.2)) chain 1: DIQMTQSPSSLSASVGDRVTITCKASQDVNEAVAWYQQKPGKAPKLLIYWASTRHTGVPSRFSGSGSGTDFTLTISSLQPEDFATYYCQQHYNTPLTFGQGTKVEIKGGGSGGGGQVQLQESGPGLVKPSETLSLTCTVSGGSISSYYWSWIRQPPGKGLEWIGRIYTSGSTNYNPSLKSRVTMSVDTSKNQFSLKLSSVTAADTAVYYCARDGWYDEDYNYYGMDVWGQGTTVTVSSGGCGGGEVAACEKEVAALEKEVAALEKEVAALEKLEPKSADKTHTCPPCPAPEAAGGPSVFLFPPKPKDTLYITREPEVTCVVVDVSHEDPEVKFNWYVDGVEVHNAKTKPREEQYNSTYRVVSVLTVLHQDWLNGKEYKCKVSNKALPAPIEKTISKAKGQPREPQVYTLPPSREEMTKNQVSLTCLVKGFYPSDIAVEWESNGQPENNYKTTPPVLDSDGSFFLYSKLTVDKSRWQQGNVFSCSVMHEALHNHYTQKSLSLSPGK chain 2: EIVMTQSPATLSLTPGERATLSCRASQSVSSNYLSWFQQIPGQAPRLLIYGASTRATGIPARFSGSGSGTDFTLTISSLQPEDFAVYYCQQDYDLPWTFGQGTKVEIKGGGSGGGGEVQLVESGGGLVQPGGSLRLSCAASGFTFSSYTMSWVRQAPGKGLEWVAYISIKGGTTYYPDTVKGRFTISRDNAKNSLYLQMNSLRAEDTAVYYCARQGLPYYGDYWGQGTLVTVSSGGCGGGKVAACKEKVAALKEKVAALKEKVAALKE | ~0.08 | ~0.004 | ~0.02 | ~0.04 | ~0.2 | ~0.1 |  |
| DART-A5 (bispecific antibody, Tetravalent; CD137 MAB-6(1.2) and hPD-L1 MAB-2(3.2)) chain 1: DIQMTQSPSSLSASVGDRVTITCKASQDVNEAVAWYQQKPGKAPKLLIYWASTRHTGVPSRFSGSGSGTDFTLTISSLQPEDFATYYCQQHYNTPLTFGQGTKVEIKGGGSGGGGQVQLQESGPGLVKPSETLSLTCTVSGGSISSYYWSWIRQPPGKGLEWIGRIYTSGSTNYNPSLKSRVTMSVDTSKNQFSLKLSSVTAADTAVYYCARDGWYDEDYNYYGMDVWGQGTTVTVSSGGCGGGEVAACEKEVAALEKEVAALEKEVAALEKLEPKSADKTHTCPPCPAPEAAGGPSVFLFPPKPKDTLYITREPEVTCVVVDVSHEDPEVKFNWYVDGVEVHNAKTKPREEQYNSTYRVVSVLTVLHQDWLNGKEYKCKVSNKALPAPIEKTISKAKGQPREPQVYTLPPSREEMTKNQVSLTCLVKGFYPSDIAVEWESNGQPENNYKTTPPVLDSDGSFFLYSKLTVDKSRWQQGNVFSCSVMHEALHNHYTQKSLSLSPGK chain 2: EIVMTQSPATLSLSPGERATLSCRASQSVSSNYLSWYQQKPGQAPRLLIYGASTRATGIPARFSGSGSGTDFTLTISSLQPEDFAVYYCQQDYDLPWTFGQGTKVEIKGGGSGGGGEVQLVESGGGLVQPGGSLRLSCAASGFTFSSYTMSWVRQAPGKGLEWVAYISIKGGTTYYPDTVKGRFTISRDNAKNSLYLQMNSLRAEDTAVYYCARQGLPYYGDYWGQGTLVTVSSGGCGGGKVAACKEKVAALKEKVAALKEKVAALKE |  |  | ~0.02 |  |  |  |  |
| TRIDENT-A (bispecific antibody, human IgG1, kappa, L234A L235A, Trivalent: two CD137 MAB-6(1.1) sites, one hPD-L1 MAB-2(1.1) Fab-type site) chain 1: EIVMTQSPATLSLTPGERATLSCRASQSVSSNYLSWFQQIPGQAPRLLIYGASTRATGIPARFSGSGSGTDFTLTISSLQPEDFAVYYCQQDYDLPWTFGQGTKVEIKGGGSGGGGQVQLQESGPGLVKPSETLSLTCTVSGGSISSYYWSWIRQPPGKGLEWIGRIYTSGSTNYNPSLKSRVTMSVDTSKNQFSLKLSSVTAADTAVYYCARDGWYDEDYNYYGMDVWGQGTTVTVSSGGCGGGEVAALEKEVAALEKEVAALEKEVAALEKGGGDKTHTCPPCPAPEAAGGPSVFLFPPKPKDTLYITREPEVTCVVVDVSHEDPEVKFNWYVDGVEVHNAKTKPREEQYNSTYRVVSVLTVLHQDWLNGKEYKCKVSNKALPAPIEKTISKAKGQPREPQVYTLPPSREEMTKNQVSLWCLVKGFYPSDIAVEWESNGQPENNYKTTPPVLDSDGSFFLYSKLTVDKSRWQQGNVFSCSVMHEALHNHYTQKSLSLSPGK chain 2: EIVMTQSPATLSLTPGERATLSCRASQSVSSNYLSWFQQIPGQAPRLLIYGASTRATGIPARFSGSGSGTDFTLTISSLQPEDFAVYYCQQDYDLPWTFGQGTKVEIKGGGSGGGGQVQLQESGPGLVKPSETLSLTCTVSGGSISSYYWSWIRQPPGKGLEWIGRIYTSGSTNYNPSLKSRVTMSVDTSKNQFSLKLSSVTAADTAVYYCARDGWYDEDYNYYGMDVWGQGTTVTVSSGGCGGGKVAALKEKVAALKEKVAALKEKVAALKE heavy: EVQLVESGGGLVQPGGSLRLSCAASGFTFSSYTMSWVRQAPGKGLEWVAYISIGGGTTYYPDTVKGRFTISRDNAKNTLYLQMNSLKTEDTAVYYCARQGLPYYFDYWGQGTLVTVSSASTKGPSVFPLAPSSKSTSGGTAALGCLVKDYFPEPVTVSWNSGALTSGVHTFPAVLQSSGLYSLSSVVTVPSSSLGTQTYICNVNHKPSNTKVDKRVEPKSCDKTHTCPPCPAPEAAGGPSVFLFPPKPKDTLYITREPEVTCVVVDVSHEDPEVKFNWYVDGVEVHNAKTKPREEQYNSTYRVVSVLTVLHQDWLNGKEYKCKVSNKALPAPIEKTISKAKGQPREPQVYTLPPSREEMTKNQVSLSCAVKGFYPSDIAVEWESNGQPENNYKTTPPVLDSDGSFFLVSKLTVDKSRWQQGNVFSCSVMHEALHNRYTQKSLSLSPGK light: DIQMTQSPSSLSASVGDRVTITCKASQDVNTAVAWYQQKPGKAPKLLIYWASTRHTGVPSRFSGSGSGTDFTLTISSLQPEDFATYYCQQHYNTPLTFGQGTKVEIKRTVAAPSVFIFPPSDEQLKSGTASVVCLLNNFYPREAKVQWKVDNALQSGNSQESVTEQDSKDSTYSLSSTLTLSKADYEKHKVYACEVTHQGLSSPVTKSFNRGEC |  |  |  | ~0.02 |  |  | ~0.08 |
